Reference: patent publication US20240301385, “DNA MODIFYING ENZYMES AND ACTIVE FRAGMENTS AND VARIANTS THEREOF AND METHODS OF USE” (LIFEEDIT THERAPEUTICS, INC., published 2024)

T1: APG00868-L16-nAPG07433.1 (synthetic)
T1 chain: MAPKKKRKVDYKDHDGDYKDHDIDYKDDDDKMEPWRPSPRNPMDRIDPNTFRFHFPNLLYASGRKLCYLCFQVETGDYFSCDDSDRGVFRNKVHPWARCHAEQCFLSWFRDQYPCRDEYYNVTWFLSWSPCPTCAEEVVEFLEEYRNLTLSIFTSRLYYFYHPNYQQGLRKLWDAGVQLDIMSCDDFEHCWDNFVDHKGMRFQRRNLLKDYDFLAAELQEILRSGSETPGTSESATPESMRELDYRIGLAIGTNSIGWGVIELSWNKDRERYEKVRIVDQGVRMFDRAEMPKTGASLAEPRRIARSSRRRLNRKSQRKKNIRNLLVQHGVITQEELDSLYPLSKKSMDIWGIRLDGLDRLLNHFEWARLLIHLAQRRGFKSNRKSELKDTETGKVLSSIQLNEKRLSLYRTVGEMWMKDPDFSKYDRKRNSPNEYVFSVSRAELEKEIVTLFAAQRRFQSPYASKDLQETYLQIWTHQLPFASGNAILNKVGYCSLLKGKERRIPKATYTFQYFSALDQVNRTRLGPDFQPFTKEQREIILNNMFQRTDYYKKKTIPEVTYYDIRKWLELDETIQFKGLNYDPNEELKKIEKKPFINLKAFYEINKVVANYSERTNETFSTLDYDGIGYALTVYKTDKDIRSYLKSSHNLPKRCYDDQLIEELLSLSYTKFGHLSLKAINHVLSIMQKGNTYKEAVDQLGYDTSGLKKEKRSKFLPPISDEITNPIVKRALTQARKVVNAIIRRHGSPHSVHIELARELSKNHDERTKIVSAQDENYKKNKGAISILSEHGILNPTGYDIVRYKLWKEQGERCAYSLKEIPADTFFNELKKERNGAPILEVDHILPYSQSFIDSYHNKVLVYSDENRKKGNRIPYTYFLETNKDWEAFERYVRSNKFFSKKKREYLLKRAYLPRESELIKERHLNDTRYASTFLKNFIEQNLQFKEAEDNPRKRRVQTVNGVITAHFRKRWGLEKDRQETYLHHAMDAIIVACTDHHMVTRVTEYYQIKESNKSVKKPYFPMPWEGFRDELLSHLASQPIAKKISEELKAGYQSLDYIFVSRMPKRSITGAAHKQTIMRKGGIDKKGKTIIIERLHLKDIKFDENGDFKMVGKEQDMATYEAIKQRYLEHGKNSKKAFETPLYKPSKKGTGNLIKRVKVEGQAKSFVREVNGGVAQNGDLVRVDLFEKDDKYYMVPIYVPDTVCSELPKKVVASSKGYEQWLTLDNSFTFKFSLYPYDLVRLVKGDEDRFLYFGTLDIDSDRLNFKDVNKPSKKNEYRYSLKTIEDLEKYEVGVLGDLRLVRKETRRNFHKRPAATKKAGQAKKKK

B1: SGN001101 sgRNA ; SGN001101 target (ssRNA ; dsDNA)
RNA: AUAUUUUCUUUAAUGGUGCCAGGCAGUCAUAGUUCCAUUAAAGCCAAAAGUGGCUUUGAUGUUUCUAUGAUAAGGGUUUCGACCCGUGGCGUCGGGGAUCGCCUGCCCAUUGAAAUGGGCUUCUCCCCAU
DNA 1: ATATTTTCTTTAATGGTGCCAGGCA
DNA 2: TGCCTGGCACCATTAAAGAAAATAT
B2: SGN000169 sgRNA ; SGN000169 target (ssRNA ; dsDNA)
RNA: CACAUCUCGAGCAAGACGUUGUCAUAGUUCCAUUAAAGCCAAAAGUGGCUUUGAUGUUUCUAUGAUAAGGGUUUCGACCCGUGGCGUCGGGGAUCGCCUGCCCAUUGAAAUGGGCUUCUCCCCAUUUAUU
DNA 1: CACATCTCGAGCAAGACGTT
DNA 2: AACGTCTTGCTCGAGATGTG
B3: SGN000929 sgRNA ; SGN000929 target (ssRNA ; dsDNA)
RNA: AUCUGGAGGGAACUUACAGCAUAUGGUCAUAGUUCCAUGAAAGCCAAAAGUGGCUUUGAUGUUUCUAUGAUAAGGGUUUCGGCCCGUGGCGUCGGGGAUCGCCUGCCCAUUCCGAUGGGCUUCUCCCCAUUUAUU
DNA 1: ATCTGGAGGGAACTTACAGCATATG
DNA 2: CATATGCTGTAAGTTCCCTCCAGAT

Columns and labels:
[1] = target: APG05840.1-L16-nAPG07433.1 (truncated deaminase) (synthetic); assay: cell_activity; HEK293FT; PAM SEQ 152; conditions: tags: SV40 NLS, 3xFLAG N-term; nucleoplasmin NLS C-term
Procedure: (§1) 500 ng of plasmid comprising an expression cassette comprising a coding sequence for each fusion protein shown in Table 3 and 500 ng of plasmid comprising an expression cassette encoding an sgRNA shown in Table 4 were co-transfected into HEK293FT cells at 75-90% confluency in 24-well plates using Lipofectamine 2000 reagent (Life Technologies). Cells were then incubated at […] for 72 h. Following incubation, genomic DNA was then extracted using NucleoSpin 96 Tissue (Macherey-Nagel) following the manufacturer's protocol. The genomic region flanking the targeted genomic site was PCR amplified using the primers in Table 4 and products were purified using ZR-96 DNA Clean and Concentrator (Zymo Research) following the manufacturer's protocol. The purified PCR products were then sent for Next Generation Sequencing on Illumina MiSeq (2×250). Results were analyzed for INDEL formation or introduction of % specific cytosine mutations.
(§2) The position of each nucleotide in the target sequence was determined. “C17” indicates, for example, a cytosine at position 17 of the target sequence. The position of each nucleotide in the target sequence was determined by numbering the first nucleotide in the target sequence closest to the PAM as position 1, and the position number increases in the 3′ direction away from the PAM sequence.

[2] = target: T1, APG00868-L16-nAPG07433.1; assay: cell_activity; HEK293FT; PAM SEQ 152; conditions: tags: SV40 NLS, 3xFLAG N-term; nucleoplasmin NLS C-term
Procedure: as §1, §2

Binder | activity [1] [% mutated reads] | activity [2] [% mutated reads]
B1 | 23.8 | 24.4
B2 | 30.2 | 16.4
B3 | 22.3 | 20.6
